Measurements as given in patent US20260034230A1 (Regeneron, published 2026).
Where a chain is given by its changes, count along the chain named.

B1: 12843B anti-hTfR monoclonal antibody (bivalent IgG1) (antibody, V domains shown)
VH: EVQLVESGGGLVQPGGSLRLSCAASGFTFNIFEMNWVRQAPGKGLEWISYISSRGTTTYYADSVRGRFTISRDNAKNSLYLQMNSLRAEDTAVYYCARDYEATIPFDFWGQGTLVTVSS
VL: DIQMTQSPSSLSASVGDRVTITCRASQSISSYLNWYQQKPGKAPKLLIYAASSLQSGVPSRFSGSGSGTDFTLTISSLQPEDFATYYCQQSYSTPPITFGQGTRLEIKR
notes: hIgG1/kappa; also called H1H12843B; REGN17512
B2: 12802B anti-hTfR monoclonal antibody (bivalent IgG1) (antibody, V domains shown)
VH: QVQLVESGGGLVKPGGSLRLSCAASGFTFSDYFMSWIRQAPGKGLEWVSYISSTGSTINYADSVKGRFTISRDNVKNSLYLQMTSLRVEDTAVYYCTRDNWNYEYWGQGTLVTVSS
VL: EIVMTQSPATLSVSPGERATLSCRASQSVSINLAWYQQKPGQAPRLLIFVASTRATGIPARFSGSGSGTEFTLTISSLQSEDFATYYCQQYDIWPYTFGQGTKLEIKR
notes: hIgG1/kappa
B3: 12844B anti-hTfR monoclonal antibody (bivalent IgG1) (antibody, V domains shown)
VH: EVQLVESGGSVVRPGGSLRLSCEASGFTFDDYGMSWVRQDPGKGLEWVSGINWNGDRTNYADSVKGRFIISRDNAKNSVYLQMNSLRAEDSALYHCARDQGLGVAATLDYWGQGTLVTVSS
VL: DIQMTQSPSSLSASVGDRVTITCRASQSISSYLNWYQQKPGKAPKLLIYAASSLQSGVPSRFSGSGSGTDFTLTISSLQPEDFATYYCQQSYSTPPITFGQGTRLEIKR
notes: hIgG1/kappa
B4: 12799B anti-hTfR monoclonal antibody (bivalent IgG1) (antibody, V domains shown)
VH: QITLKESGPTLVKPTQTLTLTCTFSGFSLSTSGVGVVWIRQPPGKALEWLALIYWNDHKRYSPSLGSRLTITKDTSKNQVVLTMTNMDPVDTATYYCAHYSGSYSYYYYGLDVWGQGTTVTVSS
VL: DIQMTQSPSSVSASVGDRVTITCRASQGIASWLAWYQQKPGKAPELLIYAASSLQGGVPSRFSGSGSGTDFTLTISSLQPEDFAIYYCQQANYFPWTFGQGTKVEIKR
notes: hIgG1/kappa; also called H1H12799B; REGN17508
B5: 12848B anti-hTfR monoclonal antibody (bivalent IgG1) (antibody, V domains shown)
VH: EVQLVESGGGLVQPGRSLTLSCAASGFTFDNFGMHWVRQGPGKGLEWVSGLTWNSGVIGYADSVKGRFTISRDNAKNSLYLQMNSLRPEDTALYYCAKDIRNYGPFDYWGQGTLVTVSS
VL: not shown
notes: hIgG1/kappa; also called H1H12848B; REGN17515
B6: 12798B anti-hTfR monoclonal antibody (bivalent IgG1) (antibody, V domains shown)
VH: EVQLVESGGDLVQPGRSLRLSCAASGFTFDDYAMHWVRQAPGKGLEWVSGISWNSATRVYADSVKGRFTISRDNAKNFLYLQMNSLRSEDTALYHCAKDMDISLGYYGLDVWGQGTTVTVSS
VL: not shown
notes: hIgG1/kappa; also called H1H12798B; REGN17507
B7: 12847B anti-hTfR monoclonal antibody (bivalent IgG1) (antibody, V domains shown)
VH: EVQLVESGGGLVQPGRSLRLSCAASGFTFDDYAMNWVRQAPGKGLEWVSGISWSSGSMDYADSVKGRFTISRDNAKNSLYLQMNSLRTEDTALYYCAKAREVGDYYGMDVWGQGTTVTVSS
VL: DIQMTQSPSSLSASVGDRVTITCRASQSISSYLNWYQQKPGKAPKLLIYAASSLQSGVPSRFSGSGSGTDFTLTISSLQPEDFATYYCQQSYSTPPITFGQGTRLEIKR
notes: hIgG1/kappa; also called H1H12847B; REGN17514
B8: 12835B anti-hTfR monoclonal antibody (bivalent IgG1) (antibody, V domains shown)
VH: EVQLVESGGGLIQPGGSLRLSCEASGFTFRNYEMNWVRQAPGKGLEWVSYISSSGNMKDYAESVKGRFTISRDNVKNSLQLQMNSLRVEDTAVYYCARDEFPYGMDVWGQGTTVTVSS
VL: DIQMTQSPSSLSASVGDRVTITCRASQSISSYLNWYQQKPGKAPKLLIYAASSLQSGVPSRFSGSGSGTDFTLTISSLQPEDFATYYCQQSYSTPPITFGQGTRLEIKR
notes: hIgG1/kappa; also called H1H12835B; REGN17509
B9: 12808B anti-hTfR monoclonal antibody (bivalent IgG1) (antibody, V domains shown)
VH: QLQLQESGPGLVKPSETLSLTCTVSGESISSNTYYWGWIRQPPGKGLEWIGSIDYSGTTNYNPSLKSRVTISVDTSRNHFSLRLRSVTAADTAVYYCAREWGNYGYYYGMDVWGQGTTVTVSS
VL: DIQMTQSPSSLSASVGDRVTINCRASQGIRNDLGWYQQKPGKAPKRLIYAASSLQSGVPLRFSGSGSGTEFTLTINNLQPEDFATYYCLSHNSYPWTFGQGTKVEIKR
notes: hIgG1/kappa
B10: 69348 anti-hTfR monoclonal antibody (bivalent IgG1) (antibody, V domains shown)
VH: QVQLVESGGGVVQPGRSLRLSCAASGFTFTTYGMHWVRQAPGKGLEWVAVIWYDGSNKYYGDSVKGRFTISRDNSKNTLYLQMNSLRVDDTAVYYCTRTHGYTRSSDGFDYWGQGTLVTVSS
VL: DIQMTQSPSSLSASVGDRVTITCRASQSIRNVLGWFQQKPGKAPQRLIYAASSLQSGVPSRFSGSGSGTEFTLTISSLQPEDFATYYCLQHNFYPLTFGGGTKVEIKR
notes: hIgG1/kappa
B11: 12801B anti-hTfR monoclonal antibody (bivalent IgG1) (antibody, V domains shown)
VH: EVQLLESGGALVQPGGSLRLSCAASGFTFTSYAMHWVRQAPGKGLEWVSSIRGSGGGTYSADSVKGRFTISRDNSRDTLYLQMNSVRAEDTAVYYCARSHDYGAFDFFDYWGQGTLVTVSS
VL: B10 VL with S28G, N31T, V32D, F36Y, Q45K, Q79R, Y86F, H91Y, F93S
notes: hIgG1/kappa
B12: 12795B anti-hTfR monoclonal antibody (bivalent IgG1) (antibody, V domains shown)
VH: EVQLVESGGGLVQPGGSLRLSCATSGFTFTSYDMKWVRQAPGLGLEWVSAISGSGGNTYYADSVKGRFTISRDNSRNTLYLQMNSLRAEDTAVYYCTRSHDFGAFDYFDYWGQGTLVTVSS
VL: B10 VL with S28G, N31D, V32H, L33F, F36Y, Q45K, Q55H, H91Y, N92D, F93T
notes: hIgG1/kappa

molecular target: T1, REGN2431 (hmm.hTfRC): monomeric human Tfrc ectodomain (C89-F760) with N-terminal hexahistidine-myc-myc tag (human, UniProt P02786 89-760); assay: SPR Biacore, IgG captured by anti-hFc, 25 C
T1 construct: also called hmm.hTfR(C89-F763); hTFR-mmh
T1 sequence (P02786 other isoform, or with tags, fused parts or gaps): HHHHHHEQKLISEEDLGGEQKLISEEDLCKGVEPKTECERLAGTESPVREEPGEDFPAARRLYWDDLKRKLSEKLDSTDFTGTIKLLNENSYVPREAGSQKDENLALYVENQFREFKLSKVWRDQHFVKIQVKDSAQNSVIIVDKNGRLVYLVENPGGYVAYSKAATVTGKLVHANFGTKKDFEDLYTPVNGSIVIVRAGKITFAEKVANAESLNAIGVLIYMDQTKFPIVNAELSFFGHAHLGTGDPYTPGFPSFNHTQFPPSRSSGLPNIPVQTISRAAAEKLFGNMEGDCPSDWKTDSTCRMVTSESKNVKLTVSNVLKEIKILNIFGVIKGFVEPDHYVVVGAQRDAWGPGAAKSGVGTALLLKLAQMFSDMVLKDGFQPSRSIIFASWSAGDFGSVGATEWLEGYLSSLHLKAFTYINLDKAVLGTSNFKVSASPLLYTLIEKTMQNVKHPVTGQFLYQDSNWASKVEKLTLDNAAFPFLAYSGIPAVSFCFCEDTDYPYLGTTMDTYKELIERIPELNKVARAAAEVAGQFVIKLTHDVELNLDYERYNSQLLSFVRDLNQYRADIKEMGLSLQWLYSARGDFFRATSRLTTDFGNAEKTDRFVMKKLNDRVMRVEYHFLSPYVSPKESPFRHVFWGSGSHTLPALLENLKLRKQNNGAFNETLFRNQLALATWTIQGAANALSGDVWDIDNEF
Method: (§1) Biacore binding kinetics assays were conducted for the interaction of 32 anti-human TfR IgG1 monoclonal antibodies from CHO supernatants with TfR reagents at 25° C.
(§2) Equilibrium dissociation constants (KD) for the interaction of anti-TfR monoclonal antibodies with human and fascicularis monkey TfR ecto domain recombinant proteins were determined using a real-time surface plasmon resonance (SPR) based Biacore S200 biosensor. All binding studies were performed in 10 mM HEPES, 150 mM NaCl, 3 mM EDTA, and 0.05% v/v surfactant Tween-20, pH 7.4 (HBS-EP) running buffer at […]. The Biacore CM5 sensor surface was first derivatized by amine coupling with a monoclonal mouse anti-human Fc antibody (REGN2567) followed by a step to capture anti-TfR monoclonal antibodies in CHO conditioned media. […] The dissociation of TfR bound to anti-TfR monoclonal antibodies was monitored for 3 minutes in HBS-EP running buffer. At the end of each cycle, the anti-TfR monoclonal antibodies capture surface was regenerated using a 12-see injection of 20 mM H₃PO₄. The association rate (ka) and dissociation rate (kd) were determined by fitting the real-time binding sensorgrams to a 1:1 binding model with mass transport limitation using Scrubber 2.0c software. The dissociation equilibrium constant (KD) and dissociative half-life (t %) were calculated from the kinetic rate constants as: […]

Binder | t1/2
B1 | 1.15 h
B2 | 6.59 h
B3 | 1.58 h
B4 | 2.91 h
B5 | 3.86 h
B6 | 3.04 h
B7 | 1.13 h
B8 | 0.462 h
B9 | 1.81 h
B10 | 1.12 h
B11 | 4.6 h
B12 | > 19.2 h

molecular target: T2, REGN2054 (mf TFRC ecto-mmh): monomeric monkey (cyno) Tfrc ectodomain (C89-F760) with C-terminal … (monkey (cyno, Macaca fascicularis), UniProt H9EXL1 89-760); assay: SPR Biacore, IgG captured by anti-hFc, 25 C
T2 construct: range 89-760; also called mfTFR-mmh; mfTfR-mmh
T2 sequence (chain, as listed by the source): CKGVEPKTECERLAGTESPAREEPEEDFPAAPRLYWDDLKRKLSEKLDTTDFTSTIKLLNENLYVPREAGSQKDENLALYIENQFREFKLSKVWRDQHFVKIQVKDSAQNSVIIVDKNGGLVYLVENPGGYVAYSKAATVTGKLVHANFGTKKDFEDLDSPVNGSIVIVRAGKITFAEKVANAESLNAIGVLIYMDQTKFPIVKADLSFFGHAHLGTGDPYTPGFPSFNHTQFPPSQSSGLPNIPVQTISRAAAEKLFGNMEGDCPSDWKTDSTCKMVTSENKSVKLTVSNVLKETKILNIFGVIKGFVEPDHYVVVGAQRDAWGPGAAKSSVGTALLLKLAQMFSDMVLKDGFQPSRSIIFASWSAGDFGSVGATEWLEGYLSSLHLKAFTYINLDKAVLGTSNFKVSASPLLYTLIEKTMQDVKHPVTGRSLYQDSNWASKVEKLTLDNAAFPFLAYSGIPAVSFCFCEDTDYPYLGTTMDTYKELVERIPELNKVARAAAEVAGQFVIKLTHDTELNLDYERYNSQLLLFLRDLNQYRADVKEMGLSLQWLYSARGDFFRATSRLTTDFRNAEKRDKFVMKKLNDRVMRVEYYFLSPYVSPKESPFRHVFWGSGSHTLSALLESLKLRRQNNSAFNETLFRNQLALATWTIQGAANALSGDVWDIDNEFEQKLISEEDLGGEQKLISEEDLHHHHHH
Method: as §1, §2

Binder | t1/2
B1 | 0.163 h
B2 | 0.363 h
B3 | 0.262 h
B4 | 1.19 h
B5 | 0.2 h
B6 | 0.15 h
B7 | 0.578 h
B8 | 0.115 h
B9 | 0.425 h
B10 | 0.418 h
B11 | 0.295 h
B12 | 2.7 h
